{"source": "paper PMC6891851", "about": "(ACS Central Science, 2019)", "target": "the molecule itself", "experiment": "hydrogelation with CD, TEM and rheology", "note": "Square brackets hold non-standard residues; d marks the D form."}
{"protein": "Ac-VEVSVSVEV[dP]PTEVSVEVEV-NH2 (SMILES CC(=O)N[C@H](C(=O)N[C@@H](CCC(=O)O)C(=O)N[C@H](C(=O)N[C@@H](CO)C(=O)N[C@H](C(=O)N[C@@H](CO)C(=O)N[C@H](C(=O)N[C@@H](CCC(=O)O)C(=O)N[C@H](C(=O)N1CCC[C@@H]1C(=O)N1CCC[C@H]1C(=O)N[C@H](C(=O)N[C@@H](CCC(=O)O)C(=O)N[C@H](C(=O)N[C@@H](CO)C(=O)N[C@H](C(=O)N[C@@H](CCC(=O)O)C(=O)N[C@H](C(=O)N[C@@H](CCC(=O)O)C(=O)N[C@H](C(N)=O)C(C)C)C(C)C)C(C)C)C(C)C)[C@@H](C)O)C(C)C)C(C)C)C(C)C)C(C)C)C(C)C)", "note": "[AcVES3 peptide hydrogel]", "values": [{"measurement": "binding result", "result": "binds"}]}
